According to paper PMC6825169, “Extracellular vesicle integrins act as a nexus for platelet adhesion in cerebral microvessels” (Scientific Reports, 2019):
Bridges are numbered along the chain shown (N, C = ends).

Molecular target: integrin αvβ3 (mouse (endogenous in mouse middle …, UniProt P43406 31-1044; O54890 26-787)
Experiment: cell-based or functional assay

Sequence of integrin αvβ3 (mouse (P43406 31-1044, chain 1 of 2): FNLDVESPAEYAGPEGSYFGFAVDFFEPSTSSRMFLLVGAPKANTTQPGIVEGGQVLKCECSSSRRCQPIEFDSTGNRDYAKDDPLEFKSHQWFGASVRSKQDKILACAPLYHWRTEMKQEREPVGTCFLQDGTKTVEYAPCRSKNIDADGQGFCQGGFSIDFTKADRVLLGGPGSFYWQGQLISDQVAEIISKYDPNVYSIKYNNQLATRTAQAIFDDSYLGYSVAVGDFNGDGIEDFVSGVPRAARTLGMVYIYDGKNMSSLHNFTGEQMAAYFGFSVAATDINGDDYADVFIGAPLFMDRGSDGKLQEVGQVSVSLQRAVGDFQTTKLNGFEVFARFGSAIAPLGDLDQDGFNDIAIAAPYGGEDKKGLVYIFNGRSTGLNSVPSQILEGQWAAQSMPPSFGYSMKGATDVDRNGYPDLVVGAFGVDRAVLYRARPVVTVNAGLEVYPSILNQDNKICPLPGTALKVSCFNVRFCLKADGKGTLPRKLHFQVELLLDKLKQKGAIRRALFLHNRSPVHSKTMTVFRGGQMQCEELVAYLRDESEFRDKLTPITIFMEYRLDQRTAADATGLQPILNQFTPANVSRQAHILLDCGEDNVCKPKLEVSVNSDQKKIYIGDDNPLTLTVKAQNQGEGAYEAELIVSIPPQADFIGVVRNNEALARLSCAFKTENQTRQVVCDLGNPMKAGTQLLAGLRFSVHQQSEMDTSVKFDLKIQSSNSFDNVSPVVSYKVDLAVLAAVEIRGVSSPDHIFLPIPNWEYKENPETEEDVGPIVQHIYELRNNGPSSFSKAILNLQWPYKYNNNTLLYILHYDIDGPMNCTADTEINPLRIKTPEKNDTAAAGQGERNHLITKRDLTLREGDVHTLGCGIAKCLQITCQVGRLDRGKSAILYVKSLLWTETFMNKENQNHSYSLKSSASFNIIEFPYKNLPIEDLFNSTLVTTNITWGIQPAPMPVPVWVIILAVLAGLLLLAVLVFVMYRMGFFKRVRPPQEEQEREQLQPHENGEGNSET
Sequence of integrin αvβ3 (mouse (O54890 26-787, chain 2 of 2): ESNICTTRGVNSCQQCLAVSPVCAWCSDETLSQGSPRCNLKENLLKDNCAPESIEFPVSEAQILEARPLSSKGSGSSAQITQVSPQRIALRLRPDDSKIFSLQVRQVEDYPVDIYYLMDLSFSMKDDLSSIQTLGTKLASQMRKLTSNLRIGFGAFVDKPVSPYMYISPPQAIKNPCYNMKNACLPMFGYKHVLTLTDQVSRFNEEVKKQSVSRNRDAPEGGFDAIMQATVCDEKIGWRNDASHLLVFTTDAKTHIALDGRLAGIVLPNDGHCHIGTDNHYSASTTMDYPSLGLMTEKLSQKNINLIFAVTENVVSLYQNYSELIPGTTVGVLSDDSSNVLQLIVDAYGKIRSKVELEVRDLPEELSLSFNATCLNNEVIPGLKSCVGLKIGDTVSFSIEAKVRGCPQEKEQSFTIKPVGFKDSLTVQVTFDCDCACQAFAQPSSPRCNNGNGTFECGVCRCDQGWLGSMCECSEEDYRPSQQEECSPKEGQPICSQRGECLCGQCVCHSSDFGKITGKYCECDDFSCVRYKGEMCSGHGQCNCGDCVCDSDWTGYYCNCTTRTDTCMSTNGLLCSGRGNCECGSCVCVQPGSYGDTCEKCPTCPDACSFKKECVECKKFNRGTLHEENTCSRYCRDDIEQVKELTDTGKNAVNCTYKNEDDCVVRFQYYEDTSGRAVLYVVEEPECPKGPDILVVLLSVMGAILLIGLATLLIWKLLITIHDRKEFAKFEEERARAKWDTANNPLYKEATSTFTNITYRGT

adherence of CFSE-labelled washed platelets to the luminal surface of the MCA under flow after cRGD-MPs, compared to cRGD peptide alone: 3 fold
B1: H-GCRGDC-NH2 (cRGD) (peptide)
peptide: H-GCRGDC-NH2
modifications: disulfide 2-6 (inferred)
